Molecular target: T1, purified RASSF1 RA domain (human, UniProt Q9NS23-2 124-288)
T1 sequence: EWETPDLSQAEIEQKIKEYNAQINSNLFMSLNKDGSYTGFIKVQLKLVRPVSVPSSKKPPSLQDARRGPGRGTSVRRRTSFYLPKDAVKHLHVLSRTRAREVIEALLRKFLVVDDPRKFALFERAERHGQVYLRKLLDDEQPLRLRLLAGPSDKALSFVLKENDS
Test: ITC

- Kd: 9.6 µM
B1: GEM-GDP (purified GEM used for ITC) (domain or fragment)
chain: STDSVISSESGNTYYRVVLIGEQGVGKSTLANIFAGVHDSMDSDCEVLGEDTYERTLMVDGESATIILLDMWENKGENEWLHDHCMQVGDAYLIVYSITDRASFEKASELRIQLRRARQTEDIPIILVGNKSDLVRCREVSV
